Earlier results as cited in patent US20110015587A1, “Irrigation Device and Method Using Same” (priority 2009, published 2011).

Test system: fibroblasts
Settings: in six hours; through motility of fibroblasts

B1: Lactoferrin (protein, UniProt P02788 20-710, looked up)
Lactotransferrin: GRRRSVQWCAVSQPEATKCFQWQRNMRKVRGPPVSCIKRDSPIQCIQAIAENRADAVTLDGGFIYEAGLAPYKLRPVAAEVYGTERQPRTHYYAVAVVKKGGSFQLNELQGLKSCHTGLRRTAGWNVPIGTLRPFLNWTGPPEPIEAAVARFFSASCVPGADKGQFPNLCRLCAGTGENKCAFSSQEPYFSYSGAFKCLRDGAGDVAFIRESTVFEDLSDEAERDEYELLCPDNTRKPVDKFKDCHLARVPSHAVVARSVNGKEDAIWNLLRQAQEKFGKDKSPKFQLFGSPSGQKDLLFKDSAIGFSRVPPRIDSGLYLGSGYFTAIQNLRKSEEEVAARRARVVWCAVGEQELRKCNQWSGLSEGSVTCSSASTTEDCIALVLKGEADAMSLDGGYVYTAGKCGLVPVLAENYKSQQSSDPDPNCVDRPVEGYLAVAVVRRSDTSLTWNSVKGKKSCHTAVDRTAGWNIPMGLLFNQTGSCKFDEYFSQSCAPGSDPRSNLCALCIGDEQGENKCVPNSNERYYGYTGAFRCLAENAGDVAFVKDVTVLQNTDGNNNEAWAKDLKLADFALLCLDGKRKPVTEARSCHLAMAPNHAVVSRMDKVERLKQVLLHQQAKFGRNGSDCPDKFCLFQSETKNLLFNDNTECLARLHGKTTYEKYLGPQYVAGITNLKKCSTSPLLEACEFLRK
  reduction of collagen gel surface area: 50%
